We go through two molecules from patent publication US20260167721A1 (ABLEXIS, published 2026).

As usually defined, the Kd is the free concentration of one partner at which half of the binding sites on the other are occupied at equilibrium, for simple one-to-one binding. Broadly, the koff is the rate constant with which the complex falls apart. By kon is commonly meant the rate constant with which the complex forms.

This test deals with recombinant CD3 proteins. Put plainly: Octet (BLI), bispecific antibody against recombinant CD3 proteins.

B1: CD3 × CD33-BspAb52 (bispecific antibody)
chain 1: not shown
chain 2: EVQLVQSGAEVKKPGSSVKVSCKASGYTITDSNIHWVRQAPGQSLEWIGYIYPYNGGTDYNQKFKNRATLTVDNPTNTAYMELSSLRSEDTAFYYCVNGNPWLAYWGQGTLVTVSSASTKGPSVFPLAPSSKSTSGGTAALGCLVKDYFPEPVTVSWNSGALTSGVHTFPAVLQSSGLYSLSSVVTVPSSSLGTQTYICNVNHKPSNTKVDKRVEPKSCDKTHTCPPCPAPEFEGGPSVFLFPPKPKDTLMISRTPEVTCVVVDVSHEDPEVKFNWYVDGVEVHNAKTKPREEQYNSTYRVVSVLTVLHQDWLNGKEYKCKVSNKALPASIEKTISKAKGQPREPQVCTLPPSREEMTKNQVSLSCAVKGFYPSDIAVEWESNGQPENNYKTTPPVLDSDGSFFLVSKLTVDKSRWQQGNVFSCSVMHEALHNRFTQKSLSLSPGK
chain 3: DIQLTQSPSTLSASVGDRVTITCRASESLDNYGIRFLTWFQQKPGKAPKLLMYAASNQGSGVPSRFSGSGSGTEFTLTISSLQPDDFATYYCQQTKEVPWSFGQGTKVEVKRTVAAPSVFIFPPSDEQLKSGTASVVCLLNNFYPREAKVQWKVDNALQSGNSQESVTEQDSKDSTYSLSSTLTLSKADYEKHKVYACEVTHQGLSSPVTKSFNRGEC
Turning to B1, the dissociation constant (Kd) turned out to be 19.5 nM, the Response stood at 0.07, the koff is 0.00751 s⁻¹ and the kon is 386000 M⁻¹ s⁻¹.

B2: CD3 × CD33-BspAb61 (bispecific antibody)
chain 1: NFMLTQPHSVSESPGKTVTISCTRSSGSIASNYVQWYQQRPGSSPTTVIYEDNQRPSGVPDRFSGSIDSSSNSASLTISGLKTEDEADYYCQSFDNSNRVFGCGTKLTVLGGGGSGGGGSGGGGSGGGGSEVQLVESGGGLVKPGGSLRLSCAASGFTFSRYSMNWVRQAPGKCLKWVSSISSSGSYKYYADSVKGRFTISRDNAKNSLYLQMNSLRAEDTAVYYCAREPPTLGMDYWGQGTLVTVSSDKTHTCPPCPAPEFEGGPSVFLFPPKPKDTLMISRTPEVTCVVVDVSHEDPEVKFNWYVDGVEVHNAKTKPREEQYNSTYRVVSVLTVLHQDWLNGKEYKCKVSNKALPASIEKTISKAKGQPREPQVYTLPPCREEMTKNQVSLWCLVKGFYPSDIAVEWESNGQPENNYKTTPPVLDSDGSFFLYSKLTVDKSRWQQGNVFSCSVMHEALHNHYTQKSLSLSPGK
chain 2: EVQLVQSGAEVKKPGSSVKVSCKASGYTITDSNIHWVRQAPGQSLEWIGYIYPYNGGTDYNQKFKNRATLTVDNPTNTAYMELSSLRSEDTAFYYCVNGNPWLAYWGQGTLVTVSSASTKGPSVFPLAPSSKSTSGGTAALGCLVKDYFPEPVTVSWNSGALTSGVHTFPAVLQSSGLYSLSSVVTVPSSSLGTQTYICNVNHKPSNTKVDKRVEPKSCDKTHTCPPCPAPEFEGGPSVFLFPPKPKDTLMISRTPEVTCVVVDVSHEDPEVKFNWYVDGVEVHNAKTKPREEQYNSTYRVVSVLTVLHQDWLNGKEYKCKVSNKALPASIEKTISKAKGQPREPQVCTLPPSREEMTKNQVSLSCAVKGFYPSDIAVEWESNGQPENNYKTTPPVLDSDGSFFLVSKLTVDKSRWQQGNVFSCSVMHEALHNRFTQKSLSLSPGK
chain 3: DIQLTQSPSTLSASVGDRVTITCRASESLDNYGIRFLTWFQQKPGKAPKLLMYAASNQGSGVPSRFSGSGSGTEFTLTISSLQPDDFATYYCQQTKEVPWSFGQGTKVEVKRTVAAPSVFIFPPSDEQLKSGTASVVCLLNNFYPREAKVQWKVDNALQSGNSQESVTEQDSKDSTYSLSSTLTLSKADYEKHKVYACEVTHQGLSSPVTKSFNRGEC
As for B2, the Kd was determined as 7.62 nM, the Response was 0.74, the koff is 0.00187 s⁻¹ and the association rate constant (kon) stood at 245000 M⁻¹ s⁻¹.
